Laboratory results: patent US20050074845A1 (Sanofi, published 2005)

Target: T1, human GLUT4 (human, UniProt P14672 1-509, limits assumed)
T1 construct: The ubiquitin-half fusion partners and the limits of the construct are not described; also called Glut 4 transporter
T1 sequence (looked up): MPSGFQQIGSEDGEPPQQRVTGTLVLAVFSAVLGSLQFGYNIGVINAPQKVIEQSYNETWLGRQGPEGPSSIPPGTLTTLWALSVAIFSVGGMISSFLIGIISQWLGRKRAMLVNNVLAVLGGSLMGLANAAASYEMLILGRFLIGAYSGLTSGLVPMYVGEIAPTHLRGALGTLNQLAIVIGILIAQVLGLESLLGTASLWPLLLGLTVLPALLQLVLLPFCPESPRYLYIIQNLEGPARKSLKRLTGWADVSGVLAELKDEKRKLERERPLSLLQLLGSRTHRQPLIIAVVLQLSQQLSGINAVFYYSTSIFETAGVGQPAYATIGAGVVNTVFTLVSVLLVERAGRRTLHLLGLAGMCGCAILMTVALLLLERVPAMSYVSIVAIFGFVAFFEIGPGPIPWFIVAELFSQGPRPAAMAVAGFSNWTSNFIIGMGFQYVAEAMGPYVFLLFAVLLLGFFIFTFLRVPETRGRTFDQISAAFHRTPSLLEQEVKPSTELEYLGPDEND
Assay: split-ubiquitin protein interaction assay in yeast

binding result: binds
B1: yeast Erg4 (enzyme)
chain: not shown
notes: The ubiquitin-half fusion partners and the limits of the construct are not described; also called Erg4 protein; sterol C-24(28)-reductase
